Reference: patent US20190352639A1 (University of Washington, published 2019)

How the values were obtained:
[1] = target: the molecule itself; assay: size exclusion chromatography and negative stain electron microscopy, self-assembly
[2] = target: the molecule itself; assay: electron cryo-tomography of vesicles from transfected HEK293T cells, self-assembly

| Protein | binding result [1] | binding result [2] |
| --- | --- | --- |
| Myr-I3-01-myc-p6 (designed binder, N-terminal myristoylation motif (6 N-terminal residues of HIV Gag); myristoylated in mammalian cells, not in E. coli, Fusion of the HIV Gag N-terminal six residues, a linker, I3-01, a myc tag and the HIV Gag p6 domain; also called Myr-I3-01-p6) MGARASGSKSGSGSDSGSKMEELFKKHKIVAVLRANSVEEAKKKALAVFLGGVHLIEITFTVPDADTVIKELSFLKEMGAIIGAGTVTSVEQCRKAVESGAEFIVSPHLDEEISQFCKEKGVFYMPGVMTPTELVKAMKLGHTILKLFPGEVVGPQFVKAMKGPFPNVKFVPTGGVNLDNVCEWFKAGVLAVGVGSALVKGTPVEVAEKAKAFVEKIRGCTEQKLISEEDLQSRPEPTAPPEESFRSGVETTTPPQKQEPIDKELYPLTSLRSLFGNDPSSQ | binds | – |
| EPN-01 (designed binder, N-terminal myristoylation motif, Myr-I3-01-myc-p6 with the methionine at the N-terminal end of the I3-01 O domain mutated to isoleucine) MGARASGSKSGSGSDSGSKIEELFKKHKIVAVLRANSVEEAKKKALAVFLGGVHLIEITFTVPDADTVIKELSFLKEMGAIIGAGTVTSVEQCRKAVESGAEFIVSPHLDEEISQFCKEKGVFYMPGVMTPTELVKAMKLGHTILKLFPGEVVGPQFVKAMKGPFPNVKFVPTGGVNLDNVCEWFKAGVLAVGVGSALVKGTPVEVAEKAKAFVEKIRGCTEQKLISEEDLQSRPEPTAPPEESFRSGVETTTPPQKQEPIDKELYPLTSLRSLFGNDPSSQ | – | binds |
